These results are taken from EP4806922A2 (Lyvgen Biopharma Holdings Limited, dated 2026).

The target of test [1] is T1, human CD3D/E protein (human, UniProt P04234 22-105; P07766 23-126).
T1 construct: also called human CD3 expressing Jurkat cells
The test is described as follows: FCM or ELISA, graded summary.

In test [2] the target is T2, human PD-L1 protein (human, UniProt Q9NZQ7 19-238). The test is described as follows: FCM or ELISA, graded summary.
The target in another test is T3, human BCMA protein (human, UniProt Q02223 1-54).
T3 construct: also called human BCMA expressing NCI-H929 cells; human BCMA overexpressing HEK293 cells
T3 sequence (looked up): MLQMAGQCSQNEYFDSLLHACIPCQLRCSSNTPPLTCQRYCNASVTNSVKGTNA
The test is described as follows: FCM or ELISA, graded summary.

The target of a further test is T4, human CD137 protein (human, UniProt Q07011 24-186).
T4 construct: also called human CD137 expressing CHO cells
T4 sequence (Q07011 24-186 limits assumed): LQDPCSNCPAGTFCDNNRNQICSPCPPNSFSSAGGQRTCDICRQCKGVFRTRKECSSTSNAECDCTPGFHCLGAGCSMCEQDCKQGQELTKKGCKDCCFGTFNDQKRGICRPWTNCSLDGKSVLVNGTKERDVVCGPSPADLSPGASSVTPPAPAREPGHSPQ
The test is described as follows: ELISA or FCM, graded summary.

The target in test [3] is T1, human CD3D/E protein. The test is described as follows: ELISA or FCM, graded summary.
The target in test [4] is T2, human PD-L1 protein. The test is described as follows: FCM or ELISA, graded summary. This is another data set of the same source.

Where two headings read alike, the source gives them in different places.

T1 sequence (P04234 22-105, chain 1 of 2): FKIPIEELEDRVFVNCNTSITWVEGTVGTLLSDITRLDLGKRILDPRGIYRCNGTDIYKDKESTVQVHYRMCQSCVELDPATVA
T1 sequence (P07766 23-126, chain 2 of 2): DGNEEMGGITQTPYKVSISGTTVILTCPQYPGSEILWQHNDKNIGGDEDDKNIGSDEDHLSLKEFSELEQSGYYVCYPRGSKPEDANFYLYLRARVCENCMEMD
T2 sequence (Q9NZQ7 19-238 limits assumed): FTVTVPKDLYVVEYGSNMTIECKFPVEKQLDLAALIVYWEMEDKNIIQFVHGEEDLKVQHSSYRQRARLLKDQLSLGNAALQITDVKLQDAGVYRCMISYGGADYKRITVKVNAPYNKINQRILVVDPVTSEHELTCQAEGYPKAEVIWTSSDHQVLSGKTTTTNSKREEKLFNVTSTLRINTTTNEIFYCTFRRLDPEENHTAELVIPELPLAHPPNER

B1: Ly2959 (BCMA/CD3/PD-L1) (other)
heavy 1: QVQLVQSGAEVKKPGASVKVSCKASGYTFTNHIIHWVRQAPGQGLEWMGYINPYPGYHAYNEKFQGRATMTSDTSTSTVYMELSSLRSEDTAVYYCARDGYYRDTDVLDYWGQGTLVTVSSASTKGPSVFPLAPSSKSTSGGTAALGCLVKDYFPEPVTVSWNSGALTSGVHTFPAVLQSSGLYSLSSVVTVPSSSLGTQTYICNVNHKPSNTKVDKKVEPKSCGGGGSGGGGSGGGGSGGGGSEVQLVESGGGLVQPGGSLRLSCAASGFTFSTYAMNWVRQAPGKGLEWVGRIRSKYNNYATYYADSVKGRFTISRDDSKNSLYLQMNSLKTEDTAVYYCVRHGNFGNSYVSWFAYWGQGTLVTVSSGGGGSDKTHTCPPCPAPELLGPSVFLFPPKPKDTLMISRTPEVTCVVVDVSHEDPEVKFNWYVDGVEVHNAKTKPREEQYNSTYRVVSVLTVLHQDWLNGKEYKCKVSNKALGAPIEKTISKAKGQPREPQVYTLPPSREEMTKNQVSLWCLVKGFYPSDIAVEWESNGQPENNYKTTPPVLDSDGSFFLYSKLTVDKSRWQQGNVFSCSVMHEALHNHYTQKSLSLSPGKGGGGSGGGGSGGGGSGGGGSQVQLVQSGAEVKKPGASVKVSCKASGYTFTDFWMSWVRQAPGQGLEWMGQIYPNTGTTHSNEKFKGRVTMTRDTSTSTVYMELSSLRSEDTAVYYCARSYHISTTPNWFAYWGQGTLVTVSS
heavy 2: QVQLVQSGAEVKKPGASVKVSCKASGYTFTNHIIHWVRQAPGQGLEWMGYINPYPGYHAYNEKFQGRATMTSDTSTSTVYMELSSLRSEDTAVYYCARDGYYRDTDVLDYWGQGTLVTVSSASTKGPSVFPLAPSSKSTSGGTAALGCLVKDYFPEPVTVSWNSGALTSGVHTFPAVLQSSGLYSLSSVVTVPSSSLGTQTYICNVNHKPSNTKVDKKVEPKSCGGGGSGGGGSGGGGSGGGGSQAVVTQEPSLTVSPGGTVTLTCRSSTGAVTTSNYANWVQQKPGQAPRGLIGGTNKRAPWTPARFSGSLLGGKAALTITGAQAEDEADYYCALWYSNLWVFGGGTKLTVLGGGGSDKTHTCPPCPAPELLGPSVFLFPPKPKDTLMISRTPEVTCVVVDVSHEDPEVKFNWYVDGVEVHNAKTKPREEQYNSTYRVVSVLTVLHQDWLNGKEYKCKVSNKALGAPIEKTISKAKGQPREPQVYTLPPSREEMTKNQVSLSCAVKGFYPSDIAVEWESNGQPENNYKTTPPVLDSDGSFFLVSKLTVDKSRWQQGNVFSCSVMHEALHNRFTQKSLSLSPGKGGGGSGGGGSGGGGSGGGGSDIQMTQSPSSLSASVGDRVTITCKASQNVYKKLEWYQQKPGKVPKVLIYHTNILQTGVPSRFSGSGSGTDYTLTISSLQPEDVATYYCYQWNSGPTFGGGTKVEIK
light: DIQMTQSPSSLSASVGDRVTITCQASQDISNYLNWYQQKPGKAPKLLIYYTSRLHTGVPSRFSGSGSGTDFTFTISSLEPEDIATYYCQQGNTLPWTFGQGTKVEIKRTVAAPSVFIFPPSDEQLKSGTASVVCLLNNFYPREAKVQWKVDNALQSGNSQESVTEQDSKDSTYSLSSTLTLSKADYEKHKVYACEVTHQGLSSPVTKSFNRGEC
notes: Multi-specific (tri-specific) antibody with three different chains HC1, HC2, LC1; also called BCMA(a) /CD3 /PD-L1
As for B1, the binding result with human CD3D/E protein [1], with human PD-L1 protein [2] and with human BCMA protein was “binds” in each case.

B2: Ly1630 (anti-CD137 parent) (antibody, V domains shown)
VH: QVQLVQSGAEVKKPGASVKVSCKASGYTFAGFEMHWVRQAPGQGLEWMGAIDPKTGGTDYNQKFKDRVTMTRDTSISTAYMELSRLRSDDTAVYYCARDLGYFDVWGQGTLVTVSS
VL: DIQMTQSPSSLSASVGDRVTITCRASQDIRSNLNWYQQKPGGAVKLLIYYTSRLHSGVPSRFSGSGSGTDYTLTISSLQPEDFATYFCQQSEKLPRTFGGGTKVEIR
notes: Parent monoclonal antibody used as control; also called anti-CD137 mAb Ly1630
Turning to B2, in the test with human CD137 protein, the binding result is “binds”.

B3: Ly305 (anti-CD3 parent) (antibody, V domains shown)
VH: EVQLVESGGGLVQPGGSLRLSCAASGFTFSTYAMNWVRQAPGKGLEWVGRIRSKYNNYATYYADSVKGRFTISRDDSKNSLYLQMNSLKTEDTAVYYCVRHGNFGNSYVSWFAYWGQGTLVTVSS
VL: QAVVTQEPSLTVSPGGTVTLTCRSSTGAVTTSNYANWVQQKPGQAPRGLIGGTNKRAPWTPARFSGSLLGGKAALTITGAQAEDEADYYCALWYSNLWVFGGGTKLTVL
notes: Parent monoclonal antibody used as control; also called anti-CD3 mAb Ly305; parental anti-CD3 mAb
Take B3: in the test with human CD3D/E protein [3], the binding result was “binds”.

B4: Ly076 (anti-PD-L1 parent) (antibody, V domains shown)
VH: QVQLVQSGAEVKKPGASVKVSCKASGYTFTDFWMSWVRQAPGQGLEWMGQIYPNTGTTHSNEKFKGRVTMTRDTSTSTVYMELSSLRSEDTAVYYCARSYHISTTPNWFAYWGQGTLVTVSS
VL: DIQMTQSPSSLSASVGDRVTITCKASQNVYKKLEWYQQKPGKVPKVLIYHTNILQTGVPSRFSGSGSGTDYTLTISSLQPEDVATYYCYQWNSGPTFGGGTKVEIK
notes: Parent monoclonal antibody used as control; also called anti-PD-L1 mAb Ly076
On to B4, for which the binding result in the test with human PD-L1 protein [4] is on record as “binds”.
